First the molecules themselves.
B1: Plx1-PBD WT (polo-box domain of Plx1) [Xenopus laevis] / MBP-fused Apc1-loop^500 WT fragment [Xenopus tropicalis] (parent)
chain 1: EPADCYLSEMLQQLTCLNAVKPSERALIRQEEAEDPASIPIFWISKWVDYSDKYGLGYQLCDNSVGVLFNDSTRLIMYNDGDSLQYIERNNTESYLNVRSYPTTLTKKITLLKYFRNYMSEHLLKAGANTTPREGDELARLPFLRTWFRTRSAIILHLSNGTVQINFFQDHTKIILCPLMAAVSYIDEKREFRTYKLSLIQEFGCCKELASRLRYARTMVEKLQSSKSAVAHVKASA
chain 2: GLAAPSLGMSNPMPRPSTPLESISTPAKPLNKHLAPMDEAGMLSPVPELRDSTRLHESTYLDDCTFHQFG
B2: MBP-fused Apc1-loop^500 WT fragment [Xenopus tropicalis] / Plx1 (polo-like kinase homolog in Xenopus laevis), endogenous [Xenopus laevis (endogenous in egg extracts)] (parent)
chain 1: MAQVAGKKLTVAPEAAKPPGIPGSSSAVKEIPEILVDPRTRRRYLRGRFLGKGGFAKCYEITDLESREVFAGKIVPKTMLLKPHQKDKMTMEIAIQRSLDHRHVVGFHGFFEDNDFVYVVLELCRRRSLLELHKRRKAVTEPEARYYLKQTISGCQYLHSNRVIHRDLKLGNLFLNDEMEVKIGDFGLATKVEYDGERKKTLCGTPNYIAPEVLGKKGHSFEVDIWSIGCIMYTLLVGKPPFETSCLKETYMRIKKNEYSIPKHINPVAAALIQKMLRSDPTSRPTIDDLLNDEFFTSGYIPSRLPTTCLTVPPRFSIAPSTIDQSLRKPLTAINKGQDSPLVEKQVAPAKEEEMQQPEFTEPADCYLSEMLQQLTCLNAVKPSERALIRQEEAEDPASIPIFWISKWVDYSDKYGLGYQLCDNSVGVLFNDSTRLIMYNDGDSLQYIERNNTESYLNVRSYPTTLTKKITLLKYFRNYMSEHLLKAGANTTPREGDELARLPFLRTWFRTRSAIILHLSNGTVQINFFQDHTKIILCPLMAAVSYIDEKREFRTYKLSLIQEFGCCKELASRLRYARTMVEKLQSSKSAVAHVKASA
chain 2: B1 chain 2

The values that follow come from paper PMC8441438, “Dynamic regulation of mitotic ubiquitin ligase APC/C by coordinated Plx1 kinase and PP2A phosphatase action on a flexible Apc1 loop” (The EMBO Journal, 2021).

In the first assay the parent is B1. Briefly: MBP pull-down (amylose beads), SDS-PAGE with Coomassie brilliant blue staining, quantified as bound Plx1-PBD per Apc1-loop500. The note with it: with MBP-fused Apc1-loop^500 WT fragment [Xenopus tropicalis]; input 10 µg Plx1-PBD, 15 min; Apc1-loop500 pre-incubated in anaphase extracts with non-degradable cyclin B, 23°C, 1 h; parent: 1.1; read off a plot.
chain 1 H171A K173M: the response amounted to 0.07 A.U.

The assay is the same for the next values; noted with them: with MBP-fused Apc1-loop^500 WT fragment [Xenopus tropicalis]; input 15 µg Plx1-PBD, 15 min; Apc1-loop500 pre-incubated in anaphase extracts with non-degradable cyclin B, 23°C, 1 h; parent: 1.4; read off a plot.
Regarding chain 1 H171A K173M, the response was 0.09 A.U.

The variants in a further assay derive from B1. Briefly: MBP pull-down (amylose beads), SDS-PAGE with Coomassie brilliant blue staining, quantified. The note with it: anaphase extracts supplemented with non-degradable cyclin B, 23°C, 1 h, then 10 µg WT Plx1-PBD for 15 min, parent: 1, read off a plot.
Regarding chain 2 T18A T25A, the ratio to parent amounted to 0.03.

Variants of B2 are the subject of another assay. The assay is described as follows: MBP pull-down (amylose beads) from Xenopus egg anaphase extracts, immunoblot with Plx1 antibody, quantified. The note with it: anaphase extracts supplemented with non-degradable cyclin B, 23°C, 1 h, parent: 1, read off a plot. For orientation: A western blot detects proteins with antibodies after separation by electrophoresis.
Regarding chain 2 T18A T25A, the ratio to parent stood at 0.51 A.U.

As to chain 2 T25A, the ratio to parent was found to be 0.61 A.U. Turning to chain 2 S44A, the ratio to parent stood at 0.5 A.U. In the case of chain 2 T18A, the ratio to parent amounted to 0.92 A.U.
